Each block holds one binder with its values, some of them ahead of it.
Tests used:
[1] = molecular target: T1, CD38 on Raji cells (CD38 positive cells) (UniProt P28907 1-300, limits assumed); assay: cell-based or functional assay
T1 sequence (looked up): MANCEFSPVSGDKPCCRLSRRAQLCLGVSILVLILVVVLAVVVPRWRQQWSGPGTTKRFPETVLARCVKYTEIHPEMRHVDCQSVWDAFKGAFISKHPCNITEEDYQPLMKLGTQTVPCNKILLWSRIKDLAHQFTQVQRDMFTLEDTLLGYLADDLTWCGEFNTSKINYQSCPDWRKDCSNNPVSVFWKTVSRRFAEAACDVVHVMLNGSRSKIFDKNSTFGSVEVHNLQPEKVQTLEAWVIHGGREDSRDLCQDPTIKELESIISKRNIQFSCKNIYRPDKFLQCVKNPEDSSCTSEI

CD38-His [2] = molecular target: T2, CD38-His (UniProt P28907 43-300); assay: ELISA, CD38-His coated at 1 µg/ml, anti-human IgG HRP detection
T2 construct: also called target antigen CD38; not shown: His tag
T2 sequence (looked up): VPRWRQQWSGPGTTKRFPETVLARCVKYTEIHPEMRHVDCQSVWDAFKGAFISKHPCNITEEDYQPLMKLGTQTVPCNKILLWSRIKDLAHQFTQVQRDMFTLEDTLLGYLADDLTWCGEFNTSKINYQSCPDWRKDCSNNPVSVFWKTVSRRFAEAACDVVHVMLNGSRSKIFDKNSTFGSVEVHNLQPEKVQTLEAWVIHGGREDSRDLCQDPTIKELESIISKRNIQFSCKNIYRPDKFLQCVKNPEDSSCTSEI
Description: (1) With SG003 as the control, the binding activity between the fusion protein and CD38 was evaluated by ELISA.
Target antigen CD38-His (1 μg/ml) was coated on ELISA bars, overnight at 4° C.; after washing with PBST, 10% of fetal calf serum was added and blocked at 37° C. for 1 hour; different concentrations of SG003 antibody, SG3847L1 or SG3847L2 fusion protein were added and reacted at 37° C. for 1 hour; after washing with PBST, horseradish peroxidase-labeled goat anti-human IgG secondary antibodies (Goat Anti human IgG HRP, Thermo Fisher Scientific) were added and reacted at 37° C. for 30 minutes, and washed with PBST for 5 times; each well was added with 100 μl TMB (eBioscience), placed in dark at room temperature (20±5° C.) for 1-2 min; then each well was added with 100 μl 2N H₂SO₄ stop solution to terminate the reaction of the substrate, OD values were read at 450 nm on the microplate reader, and the capacity of the fusion protein to bind the target antigen CD38 was analyzed.

[3] = molecular target: T3, biotin-labeled CD47 (Biotin-Fc-CD47) (UniProt Q08722 19-141, limits assumed, biotin-labeled); assay: competition ELISA: SIRPα-His coated at 1 µg/ml, Biotin-Fc-CD47 at 2 µg/ml; competitor SIRPα-His
T3 construct: not shown: Fc part
Description: SIRPα-His was coated on the assay plate at 1 μg/ml overnight at 4° C.; after washing with PBST, 10% of fetal calf serum was added and blocked at 37° C. for 1 hour; SS002M91, SG3847L1 or SG3847L2 was gradiently diluted respectively with 10% of fetal bovine blood, and Biotin-Fc-CD47 was added into the samples until a final concentration of 2 μg/ml, pre-incubated at 37° C. for 30 min, as the primary antibody; after the assay plate was washed with PBST, the primary antibody was added and incubated at 37° C. for 1 hour; after washing with PBST for 5 times, horseradish peroxidase-labeled avidin (Streptavidin-HRP, Jiaxuan Bio.) was added and incubated at 37° C. for 30 minutes; after washing with PBST for 5 times, each well was added with 100 μl TMB (eBioscience), placed in dark at room temperature (20±5° C.) for 1-5 min; then each well was added with 100 μl 2N H₂SO₄ stop solution to terminate the reaction of the substrate, OD values were read at 450 nm on the microplate reader, and the blocking effects of SS002M91, SG3847L1, SG3847L2 on CD47/SIRPα were analyzed.

CD47-His = molecular target: T4, CD47-His (UniProt Q08722 19-141, limits assumed); assay: ELISA, CD47-His coated at 1 µg/ml, anti-human IgG HRP detection
T4 construct: also called target antigen CD47; not shown: His tag
Description: Target antigen CD47-His (1 μg/ml) was coated on ELISA bars, overnight at 4° C.; after washing with PBST, 10% of fetal calf serum was added and blocked at 37° C. for 1 hour; different concentrations of SS002M91, SG3847L1 or SG3847L2 was added and reacted at 37° C. for 1 hour; after washing with PBST, horseradish peroxidase-labeled goat anti-human IgG secondary antibodies (Goat Anti human IgG HRP, Thermo Fisher Scientific) were added and reacted at 37° C. for 30 minutes, and washed with PBST for 5 times; each well was added with […] (eBioscience), placed in dark at room temperature (20±5° C.) for 1-2 min; then each well was added with 100 μl 2N H₂SO₄ stop solution to terminate the reaction of the substrate, OD values were read at 450 nm on the microplate reader, and the capacity of the fusion protein to bind the target antigen CD47 was analyzed.

CD38-His [4] = molecular target: T2, CD38-His; assay: bridging ELISA: CD38-His coated, fusion protein titrated, detected with Biotin-Fc-CD47 and streptavidin-HRP (simultaneous binding of CD38 and CD47)
Description: (1) Referring to the principle of FIG. 5, with the anti-CD38 humanized antibody SG003 as the control, the biological activities of the fusion proteins SG3847L1 and SG3847L2 to simultaneously bind two antigens CD38 and CD47 were analyzed by ELISA.
Target antigen CD38-His (1 μg/ml) was coated on ELISA bars, overnight at 4° C.; after washing with PBST, 10% of fetal calf serum was added and blocked at 37° C. for 1 hour; different concentrations of SG003 antibody, SG3847L1 or SG3847L2 fusion protein were added and reacted at 37° C. for 1 hour; after washing with PBST, biotin-labeled CD47 (Biotin-Fc-CD47) was added and reacted at 37° C. for 30 minutes, and washed with PBST for 5 times; horseradish peroxidase-labeled avidin (Streptavidin-HRP, Jiaxuan Bio.) was added and reacted at 37° C. for 30 minutes, and washed with PBST for 5 times; each well was added with 100 μl TMB (eBioscience), placed in dark at room temperature (20±5° C.) for 1-2 min; then each well was added with 100 μl 2N H₂SO₄ stop solution to terminate the reaction of the substrate, OD values were read at 450 nm on the microplate reader, and the capacities of the fusion proteins to simultaneously bind the target antigens CD38 and CD 47 were analyzed.

T3 sequence (Q08722 19-141 limits assumed): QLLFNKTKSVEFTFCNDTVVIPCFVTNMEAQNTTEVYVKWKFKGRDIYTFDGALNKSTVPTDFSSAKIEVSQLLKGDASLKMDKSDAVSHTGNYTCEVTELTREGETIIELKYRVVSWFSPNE
T4 sequence (Q08722 19-141 limits assumed): as above

EC50 (CD38-His [2]): 133 pM
B1: anti-CD38 humanized antibody SG003 (antibody, human IgG1, kappa, V domains shown)
VH: QVQLLESGGGLVQPGGSLKLSCVASGFDFSLYWMNWVRQAPGKGLEWIGKINPDSSTINYTPSLKDKFFISRDNAKNTLYLQMTKVRSEDTALYYCARLWIATGGFDYWGQGTTLTVSS
VL: EIVMTQSPASLSASLGQRATISCRASSSVSSSAFSYVHWYQQKSGQPPKLLIYLASNLESGVPARFSGSGSGTDFTLTIHPVESEDVATYYCHHSRELPFTFGSGTKLEIKR
notes: also called SG003 antibody
ADCC EC50 (specific kill rate, LDH release; Raji target cells, NK92MI-CD16a effector cells) [1]: 67 pM

IC50 [3]: 46800 pM
EC50 (CD47-His): 114 pM
EC50 (CD38-His [2]): 175 pM
EC50 (CD38-His [4]): 20 pM
B2: fusion protein SG3847L1 (bispecific antibody, human IgG1, kappa)
heavy: not shown
light: EIVMTQSPASLSASLGQRATISCRASSSVSSSAFSYVHWYQQKSGQPPKLLIYLASNLESGVPARFSGSGSGTDFTLTIHPVESEDVATYYCHHSRELPFTFGSGTKLEIKRTVAAPSVFIFPPSDEQLKSGTASVVCLLNNFYPREAKVQWKVDNALQSGNSQESVTEQDSKDSTYSLSSTLTLSKADYEKHKVYACEVTHQGLSSPVTKSFNRGEC
notes: First polypeptide chain = SG003 light chain
ADCC EC50 (specific kill rate, LDH release; Raji target cells, NK92MI-CD16a effector cells) [1]: 14 pM

IC50 [3]: 78800 pM
EC50 (CD47-His): 91 pM
EC50 (CD38-His [2]): 149 pM
EC50 (CD38-His [4]): 24 pM
B3: fusion protein SG3847L2 (bispecific antibody, human IgG1, kappa)
heavy: not shown
light: B2 light
notes: as for B2
ADCC EC50 (specific kill rate, LDH release; Raji target cells, NK92MI-CD16a effector cells) [1]: 13 pM

Reference: patent publication US20210317230A1 (HANGZHOU SUMGEN BIOTECH, published 2021)
